According to EP4748858A1 (Nanjing Probio Biotech Co., Ltd., dated 2026):

What was measured:
[1] = target: T1, human CD7 expressed on cells (human, UniProt P09564 26-240); test: cell-based or functional assay
T1 sequence (looked up): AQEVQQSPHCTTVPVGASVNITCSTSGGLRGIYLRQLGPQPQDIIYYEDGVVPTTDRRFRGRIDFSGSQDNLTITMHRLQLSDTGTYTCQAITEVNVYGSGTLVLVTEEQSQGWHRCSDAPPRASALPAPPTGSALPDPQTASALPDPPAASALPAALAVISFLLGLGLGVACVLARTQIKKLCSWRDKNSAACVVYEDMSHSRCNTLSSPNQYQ

[2] = target: T1, human CD7 expressed on cells; test: cell-based or functional assay; remark: listed apart in the source
[3] = target: T2, recombinant protein of the human CD7 extracellular domain, CD7-His (human, UniProt P09564 26-180); test: SPR Biacore T200, antibody captured via Fc, human CD7 as analyte
T2 construct: range 25-645; also called human CD7-His protein; recombinant human CD7; not shown: His protein tag
T2 sequence (looked up): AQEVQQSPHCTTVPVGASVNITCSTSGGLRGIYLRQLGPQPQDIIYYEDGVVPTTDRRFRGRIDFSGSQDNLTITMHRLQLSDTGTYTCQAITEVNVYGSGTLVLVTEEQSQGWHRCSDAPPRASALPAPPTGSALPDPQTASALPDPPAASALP

B1: VHH6 CAR (other)
chain: DVQLQESGGGLVQAGGSLRLSCAVSGYPYSSYCMGWFRQAPGKEREGVAAIDSDGRTRYADSVKGRFTISQDNAKNTLYLQMNRMKPEDTAMYYCAARFGPMGCVDLSTLSFGHWGQGTQVTVSITGGGGSGGGGSGGGGSGGGGSDVQLQESGGGLVQAGGSLRLSCAVSGYPYSSYCMGWFRQAPGKEREGVAAIDSDGRTRYADSVKGRFTISQDNAKNTLYLQMNRMKPEDTAMYYCAARFGPMGCVDLSTLSFGHWGQGTQVTVSITAAADYKDDDDKIEVMYPPPYLDNEKSNGTIIHVKGKHLCPSPLFPGPSKPFWVLVVVGGVLACYSLLVTVAFIIFWVRSKRSRLLHSDYMNMTPRRPGPTRKHYQPYAPPRDFAAYRSRVKFSRSADAPAYQQGQNQLYNELNLGRREEYDVLDKRRGRDPEMGGKPRRKNPQEGLYNELQKDKMAEAYSEIGMKGERRRGKGHDGLYQGLSTATKDTYDALHMQALPPR
% Cytotoxicity of CAR-T cells against CCRF-CEM/Luc, E/T = 1 : 1 [1]: 74.5% | % Cytotoxicity of CAR-T cells against CCRF-CEM/Luc, E/T = 5 : 1 [1]: 51.2% | % Cytotoxicity of CAR-T cells against CCRF-CEM/Luc, E/T = 20 : 1 [1]: 71.1% | % Cytotoxicity of CAR-T cells against Jurkat/Luc, E/T = 1 : 1 [2]: 43.4% | % Cytotoxicity of CAR-T cells against Jurkat/Luc, E/T = 5 : 1 [2]: 67.2% | % Cytotoxicity of CAR-T cells against Jurkat/Luc, E/T = 20 : 1 [2]: 93.6%

B2: AHP19484-VHH3 CAR (other)
chain: QVQLVESGGGLVKPGGSLRLSCAASGSSFHFAFMGWYRQAPGKQRELVADISPGNSTNYADPVKGRFTISRDNAKNSLYLQMNSLRAEDTAVYFCRDLRSWGAWGQGTLVTVSSGGGSGGGSGGGSGGGSQVQLVESGGGLVKPGGSLRLSCAASGSSFHFAFMGWYRQAPGKQRELVADISPGNSTNYADPVKGRFTISRDNAKNSLYLQMNSLRAEDTAVYFCRDLRSWGAWGQGTLVTVSSAAADYKDDDDKIEVMYPPPYLDNEKSNGTIIHVKGKHLCPSPLFPGPSKPFWVLVVVGGVLACYSLLVTVAFIIFWVRSKRSRLLHSDYMNMTPRRPGPTRKHYQPYAPPRDFAAYRSRVKFSRSADAPAYQQGQNQLYNELNLGRREEYDVLDKRRGRDPEMGGKPRRKNPQEGLYNELQKDKMAEAYSEIGMKGERRRGKGHDGLYQGLSTATKDTYDALHMQALPPR
% Cytotoxicity of CAR-T cells against CCRF-CEM/Luc, E/T = 1 : 1 [1]: 69.7% | % Cytotoxicity of CAR-T cells against CCRF-CEM/Luc, E/T = 5 : 1 [1]: 64.9% | % Cytotoxicity of CAR-T cells against CCRF-CEM/Luc, E/T = 20 : 1 [1]: 94.1% | % Cytotoxicity of CAR-T cells against Jurkat/Luc, E/T = 1 : 1 [2]: 60.5% | % Cytotoxicity of CAR-T cells against Jurkat/Luc, E/T = 5 : 1 [2]: 94.5% | % Cytotoxicity of CAR-T cells against Jurkat/Luc, E/T = 20 : 1 [2]: 100%

B3: AHP19509-VHH1 (Fc fusion)
chain: EVQLVESGGGLVQPGGSLRLSCAASGGTFNRYTMGWFRQAPGKEREFVSAISWSGGSTDYADSVKGRFTISRDNSKNTLYLQMNSLRAEDTAVYYCDTDRMPYRPVAAGILSWEANWGQGTLVTVSS
notes: Humanized VHH of AHP19509 expressed as fusion to human IgG1 Fc; not shown: human IgG1 Fc of expression vector pcDNA3.4-Fc (Human IgG1)
Kd [3]: 0.1 nM | koff [3]: 3.04e-05 s⁻¹ | kon [3]: 304000 M⁻¹ s⁻¹

B4: AHP19484-VHH3 (Fc fusion)
chain: QVQLVESGGGLVKPGGSLRLSCAASGSSFHFAFMGWYRQAPGKQRELVADISPGNSTNYADPVKGRFTISRDNAKNSLYLQMNSLRAEDTAVYFCRDLRSWGAWGQGTLVTVSS
notes: Humanized VHH of AHP19484 expressed as fusion to human IgG1 Fc; not shown: human IgG1 Fc of expression vector pcDNA3.4-Fc (Human IgG1)
Kd [3]: 0.118 nM | koff [3]: 5.19e-05 s⁻¹ | kon [3]: 440000 M⁻¹ s⁻¹

B5: AHP19485-VHH1 (Fc fusion)
chain: EVQLVESGGGLVQPGGSLRLSCAASERIFSIHAMGWYRQAPGKQRELVSSITIGGSTHYADSVKGRFTISRDNSKNTLYLQMNSLRAEDTAVYYCNSMLLAGTVGGSWGQGTLVTVSS
notes: Humanized VHH of AHP19485 expressed as fusion to human IgG1 Fc; not shown: human IgG1 Fc of expression vector pcDNA3.4-Fc (Human IgG1)
Kd [3]: 0.131 nM | koff [3]: 3.18e-05 s⁻¹ | kon [3]: 243000 M⁻¹ s⁻¹
